Measurements reported in patent US8008547B2, “Glyphosate-N-acetyltransferase (GAT) genes” (E.I. duPont de Nemours, priority 2000, dated 2011).

Tests used:
[1] = test system: Nicotiana tabacum L. Xanthi leaf explants; assay: Tobacco shoot regeneration with glyphosate selection; assay type: cell-based; details: explants lacking a GAT gene
From the text: Agrobacterium-mediated transformation of plant cells occurs at low efficiencies. To allow propagation of transformed cells while inhibiting proliferation of non-transformed cells, a selectable marker is needed. Antibiotic markers for kanamycin and hygromycin and the herbicide modifying gene bar, which detoxifies the herbicidal compound phosphinothricin, are examples of selectable markers used in plants (Methods in Molecular Biology, 1995, 49:9-18). […] An evolved GAT gene (0—5B8), SEQ ID NO: 190, was cloned between a plant promoter (enhanced strawberry vein banded virus) and a […] terminator and introduced into the T-DNA region of the binary vector pMAXY3793 suitable for transformation of plant cells via Agrobacterium tumefaciens EHA105 as shown in FIG. 12. A screenable GUS marker was present in the T-DNA to allow confirmation of transformation. Transgenic tobacco shoots were generated using glyphosate as the only selecting agent.
Axillary buds of Nicotiana tabacum L. Xanthi were subcultured on half-strength MS medium with sucrose (1.5%) and Gelrite (0.3%) under 16-h light (35-42 μEinsteins m^−2 s^−1, cool white fluorescent lamps) at 24° C. every 2-3 weeks. Young leaves were excised from plants after 2-3 weeks subculture and were cut into 3×3 mm segments. A. tumefaciens EHA105 was inoculated into LB medium and grown overnight to a density of A600=1.0. […]

[2] = test system: tobacco plants; assay: Herbicide spray tests of GAT expressing tobacco plants; assay type: in vivo, Nicotiana tabacum
Experimental: Tobacco shoots generated as described in EXAMPLE 9 were excised from the explants and transferred to basal root induction (BRI) medium composed of half-strength Murashige and Skoog (MS) medium, pH 5.7, with 1.5% sucrose, 0.3% Gelrite, 0-200 uM glyphosate and 400 ug/ml Timentin. Rooted plants and axillary shoots were clonally propagated by cutting the stem and transferring it to fresh BRI medium until the desired number of clones was obtained. Rooted plants were carefully removed from the solid medium. Prior to placing the plants into small pots of soil, the roots were washed to remove any remaining Gelrite. A protective plastic cover was kept over the plants for at least one week until the plants were well established.
To determine if GAT expressing tobacco plants could tolerate simulated field rate sprays of glyphosate, clonal lines of several events per GAT variant were tested. A typical test was set up as follows: One clone from each event was sprayed with 1 ml of solution containing the isopropylamine salt of glyphosate (Sigma P5671) and 0.125% Triton X-100, pH 6.8 such that the amount of active ingredient sprayed was equivalent to that present in commercial glyphosate products. For example, to achieve 32 oz/acre (1×) of herbicide containing 40% active ingredient (“ai”), 2.4 ul of 40% ai formulation was diluted into 1 ml water and sprayed on a plant in a 4-inch square pot (16 in^2). A mock application (0×) with surfactant only was also included. In some cases a second spray was applied 1-4 weeks later. Plants were kept in controlled growth rooms at 25° C. and 70% humidity with 16 hr light.
Seed-grown wild type plants were also sprayed. […] All 0× plants were healthy, including the non-GAT control plants. Three weeks later all of the surviving plants were sprayed with an 8× dose.

[3] = test system: maize plants; assay: T1 field glyphosate spray of maize expressing GAT transgenes; assay type: in vivo; details: 0×, 4×, 8×, and 4×+4× sprays at V3 and V8; scored 10 days after treatment
Experimental: Maize plants expressing GAT variant transgenes 18-28D9b (SEQ ID NO:814) and 17-15H3 (SEQ ID NO:549) were produced using the methods described in Example 13. T1 plants were used for the generation of glyphosate field-tolerance data. The T1 plants were treated in the field with four different glyphosate spray treatments (0×, 4×, 8×, and 4×+4×) for each event. The plants were sprayed at V3 and V8. Plants were scored 10 days after treatment for leaf discoloration and plant height comparisons as described in Example 13. […] T2 seeds were collected for further studies.

[4] = test system: maize plants; assay: Effect of temperature variation on glyphosate tolerance of T1 maize expressing GAT transgenes; assay type: in vivo; details: cool/cold, warm and hot conditions; 0×, 4×, 6×, 8× at V2; scored at 5 and 14 days
Experimental: Maize plants expressing GAT variant transgenes 10—4F2 (SEQ ID NO:202), 17-15H3 (SEQ ID NO:549), and 18-28D9b (SEQ ID NO:814) were produced using the methods described in Example 13. The effect of temperature on glyphosate tolerance was evaluated in T1 plants. The T1 plants were grown in cool/cold (day 14° C., night 8° C.), warm (day 28° C., night 20° C.), and hot (day 37° C., night 20° C.) conditions. T1 plants were sprayed at V2 with four different glyphosate spray treatments (0×, 4×, 6×, and 8×). Plants were scored at 5 and 14 days after treatment for leaf discoloration and plant height comparisons as described in Example 13.

[5] = GAT activity (acetylation of glyphosate), general statements; assay type: biochemical; details: native YitI of Bacillus subtilis
From the text: As used herein, the term “glyphosate-N-acetyltransferase activity” or “GAT activity” refers to the ability to catalyze the acetylation of the secondary amine group of glyphosate, as illustrated, for example, in FIG. 1. A “glyphosate-N-acetyltransferase” or “GAT” is an enzyme that catalyzes the acetylation of the amine group of glyphosate, a glyphosate analog, and/or a glyphosate primary metabolite (i.e., AMPA or sarcosine). In some preferred embodiments of the invention, a GAT is able to transfer the acetyl group from Acetyl CoA to the secondary amine of glyphosate and the primary amine of AMPA. […] The exemplary GATs described herein are active from pH 5-9, with optimal activity in the range of pH 6.5-8.0. Activity can be quantified using various kinetic parameters which are well known in the art, e.g., kcat, KM, and kcat/KM. These kinetic parameters can be determined as described below in Example 7.

[6] = test system: yeast strain YPH499; assay: Glyphosate selection of transformed yeast cells; assay type: cell-based, Saccharomyces cerevisiae; details: CSM-YNB-glucose medium lacking aromatic amino acids with added glyphosate
From the text: Selection markers for yeast transformation are usually auxotrophic genes that allow growth of transformed cells on a medium lacking the specific amino acid or nucleotide. Because Saccharomyces cerevisiae is sensitive to glyphosate, GAT can also be used as a selectable marker. […] This plasmid contains an E. coli origin of replication and a gene conferring carbenicillin resistance as well as a TRP1, tryptophan auxotroph selectable marker for yeast transformation.
The GAT containing construct is transformed into E. coli XL1 Blue (Statagene) and plated on LB carbenicillin (50 ug/ml) agar medium. Plasmid DNA is prepared and used to transform yeast strain YPH499 (Stratagene) using a transformation kit (Bio 101). Equal amounts of transformed cells are plated on CSM-YNB-glucose medium (Bio 101) lacking all aromatic amino acids (tryptophan, tyrosine, and phenylalanine) with added glyphosate. For comparison, p424TEF lacking the GAT gene is also introduced into YPH499 and plated as described. […] The presence of the GAT containing vector in glyphosate selected colonies can be confirmed by re-isolation of the plasmid and restriction digest analysis.

## O=C(O)CNCP(=O)(O)O [glyphosate, N-phosphonomethylglycine]
[1]
  glyphosate concentration that completely inhibited any shoot formation: greater than 20 uM
[2]; 0.5, 2 or 4× glyphosate, vector only and seed grown wild type tobacco
  plant response two weeks after glyphosate spray: stopped growing, wilted, and turned brown
[2]; 8× glyphosate, non-GAT 0× control tobacco plants
  plant response after 8× dose: died within two weeks

B1: SEQ ID NO:549: GAT variant transgene (nucleic acid)
DNA: ATGATAGAGGTGAAACCGATTAACGCAGAGGATACCTATGAACTAAGGCATAGAATACTCAGACCAAACCAGCCGATAGAAGCGTGTATGTTTGAAAGCGATTTACTTCGTGGTGCATTTCACTTAGGCGGCTATTACGGGGGCAAACTGATTTCCATAGCTTCATTCCACCAGGCCGAGCACTCAGAACTCCAAGGCCAGAAACAGTACCAGCTCCGAGGTATGGCTACCTTGGAAGGTTATCGTGAGCAGAAGGCGGGATCGAGTCTAATTAAACACGCTGAAGAAATTCTTCGTAAGAGGGGGGCGGACTTGCTTTGGTGTAATGCGCGGACATCCGCCTCAGGCTACTACAAAAAGTTAGGCTTCAGCGAGCAGGGAGAGGTATTCGACACGCCGCCAGTAGGACCTCACATCCTGATGTATAAAAGGATCACATAA
modifications: Synthetic DNA Sequence; D_S00260796_17-15H3
notes: GAT variant transgene
[3]
  T1 field glyphosate tolerance: correlated well with the results previously obtained in the greenhouse
[4]
  effect of temperature on glyphosate tolerance: glyphosate tolerance is not adversely effected by the range of temperatures tested

B2: YitI: most closely related sequence available in Genbank, yitI from Bacillus subtilis (protein, UniProt O06744 1-149, looked up)
Uncharacterized …: MLEVKTISVEDTYEIRHRILRPHQSIEQCKYKEDHAEGSFHLGVFYDGTLISIASFSPQSQPLLTEASAYRLRGMATLEGYRDQKAGSTLIKHAEHKLAESGVQAVWCNARHHVKGYYAKLGWKELGEPFDIPGIGNHIVMYKTLRTSR
[5]
  GAT activity: detectable GAT activity

B3: SEQ ID NO: 196: evolved GAT gene (nucleic acid)
DNA: ATGCTAGAGGTGAAACCGATTAACGCAGAGGATACCTATGAACTAAGGCATAAAATACTCAGACCAAACCAGCCGTTAGAAGTGTGTATGTATGAAACCGATTTACTTCGTGGTGCATTTCACTTAGGCGGCTTTTACAGGGGCAAACTGATTTCCATAGCTTCATTCCACCAGGCCGAGCACTCAGACCTCCAAGGCCAGAAACAGTACCAGCTCCGAGGTATGGCTACCTTGGAAGGTTATCGTGATCAGAAAGCGGGATCGAGTCTAATTAGACACGCTGAACAAATTCTTCGTAAGAGGGGGGCGGACATGCTTTGGTGCAATGCGCGGACATCCGCCTCAGGCTACTACAAAAAGTTAGGCTTCAGCGAGCAGGGAGAGGTATTTGAAACGCCGCCAGTAGGACCTCACATCCTGATGTATAAAAGGCTCACA
modifications: Synthetic DNA Sequence; 0_6D10
notes: evolved GAT gene
[6]
  function as selectable marker in yeast: efficient selectable marker
[2]; 0.5, 2 or 4× glyphosate (1× = 32 oz/acre of 40% ai), transgenic GAT tobacco
  plant response two weeks after glyphosate spray: survived the spraying procedure without signs of glyphosate damage
[2]; 8× glyphosate dose three weeks later, transgenic GAT tobacco
  survival after second spray: all GAT plants survived

B4: SEQ ID NO:814: GAT variant transgene (nucleic acid)
DNA: ATGATAGAGGTGAAACCGATTAACGCAGAGGATACCTATGAACTAAGGCATAGAATACTCAGACCAAACCAGCCGATAGAAGCGTGTATGTTTGAAAGCGATTTACTTCGTGGTGCATTTCACTTAGGCGGCTTTTACAGGGGCAAACTGATTTCCATAGCTTCATTCCACCAGGCCGAGCACTCGGAACTCCAAGGCCAGAAACAGTACCAGCTCCGAGGTATGGCTACCTTGGAAGGTTATCGTGAGCAGAAAGCGGGATCAACTCTAGTTAAACACGCTGAAGAAATCCTTCGTAAGAGGGGGGCGGACATGCTTTGGTGTAATGCGCGGACATCCGCCTCAGGCTACTACAAAAAGTTAGGCTTCAGCGAGCAGGGAGAGATATTTGACACGCCGCCAGTAGGACCTCACATCCTGATGTATAAAAGGATCACATAA
modifications: Synthetic DNA Sequence; CDS (1)...(441); 18-28D9b
notes: GAT variant transgene
[3]
  T1 field glyphosate tolerance: correlated well with the results previously obtained in the greenhouse
[4]
  effect of temperature on glyphosate tolerance: glyphosate tolerance is not adversely effected by the range of temperatures tested
